The values below come from patent US20250108100A1, “C-TERMINAL FRAGMENT OF APOLIPOPROTEIN E AND APPLICATION THEREOF IN INHIBITING y-SECRETASE ACTIVITY” (SYNPHATEC (SHANGHAI) BIOPHARMACEUTICAL TECHNOLOGY CO., LTD., priority 2022, published 2025).

This experiment has as its target purified human γ-secretase (NCT-V5-6×His; FLAG-PEN2; APH; PS1) (human) (UniProt Q92542). The experiment in a line: cell-based or functional assay.

ApoE2-3×FLAG (purified), sequence (P02649 19-317 R176C): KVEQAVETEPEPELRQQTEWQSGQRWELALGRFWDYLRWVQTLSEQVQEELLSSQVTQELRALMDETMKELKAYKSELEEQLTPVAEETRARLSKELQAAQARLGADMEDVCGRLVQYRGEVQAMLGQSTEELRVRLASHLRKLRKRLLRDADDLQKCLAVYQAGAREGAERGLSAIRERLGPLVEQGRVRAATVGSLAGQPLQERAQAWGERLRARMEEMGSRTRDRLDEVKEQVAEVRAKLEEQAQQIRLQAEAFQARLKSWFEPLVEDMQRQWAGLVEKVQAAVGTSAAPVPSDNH

Regarding “ApoE2-3×FLAG (purified) (from UniProt P02649 19-317)”, the IC50 for Aβ production on co-incubation of purified β-CTF and γ-secretase with a concentration series of ApoE2 (ELISA) is 1.2 µM; the half-inhibitory concentration (IC50) for Aβ40 production from purified β-CTF by purified γ-secretase (ELISA) came out at 1.2 µM.
